# Tested on: NusA-Notch fusion protein (NusA fused to mouse Notch-1 N1703-D1860 with C-terminal Flag and 8His tags), uncleaved
substance,measurement,value
solubilized gamma-secretase from HeLa cells,apparent Km for hydrolysis (Notch cleavage ELISA),about 0.7 µM
same,specific cleavage at the 1743-1744 junction,γ-secretase activity from HeLa cells specifically cleaves the Notch protein at the 1743-1744 junction

# Reference: patent US20110098227
